Series [1] concerns the target T1, β-bungarotoxin (β-BuTx) (Bungarus multicinctus) (UniProt P00618+P00987). In words: fluorescence anisotropy. As to conditions: 20 mM HEPES pH 7.4, 150 mM NaCl, 5 mM KCl, 2 mM MgCl2, 2 mM CaCl2, room temperature.
Series [2] concerns the target T1, β-bungarotoxin (β-BuTx) (Bungarus multicinctus). The experiment in a line: filter binding. Conditions: 20 mM HEPES pH 7.4, 150 mM NaCl, 5 mM KCl, 2 mM MgCl2, 2 mM CaCl2, room temperature.

pKd: −log10 of the molar value.

T1 sequence (P00618 26-145, chain 1 of 2): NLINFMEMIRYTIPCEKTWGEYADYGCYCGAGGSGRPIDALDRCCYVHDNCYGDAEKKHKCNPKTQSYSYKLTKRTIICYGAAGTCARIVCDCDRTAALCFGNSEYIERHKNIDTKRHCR
T1 sequence (P00987 25-85, chain 2 of 2): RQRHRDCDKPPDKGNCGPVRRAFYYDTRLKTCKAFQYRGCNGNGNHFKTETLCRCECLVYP

On to “AGCAGCACAGAGGTCAGATGTTTGGTGTGGATCCTGAACATTTATATTCTTTCGTTTTTTCCTATGCGTGCTACCGTGAA [βB-19]”, for which the pKd (commonly the negative decadic logarithm of the Kd, by convention in mol/L) in series [1] is 6.28. As to “AGCAGCACAGAGGTCAGATGATTAGTCATGTTTGTTTGTCTGGCTTTTTGGGTTTGTGCAGTATTATGAACCCTATGCGTGCTACCGTGAA [βB-20]”, in series [1], the pKd was 7.08. Against the preceding sequence, the pKd is 0.80 log units higher. “AGCAGCACAGAGGTCAGATGGTTTTCCCCTTGTCGCTTTTGGTTCGTTCTGCCTCTATCTCCTATGCGTGCTACCGTGAA [βB-1]”: the negative-log Kd (pKd) in series [1] is 7.18. The same sequence displayed a binding signal in series [2] of 45 % bound. Regarding “AGCAGCACAGAGGTCAGATGGCAATGCACCTTTGTCTCTTATAGTTTATTTTTTGCCTTCCTATGCGTGCTACCGTGAA [βB-32]”, in series [1], the negative-log Kd (pKd) is 6.00.

For the origin of these results see publication PMC4140777.
